The record followed here is publication PMC3248755.

Substrate in this data set: CSC(=N)NCCC[C@H](N)C(=O)O
The data set can be described thus: steady-state kinetics. In kind it is biochemical, Homo sapiens.

B1: human dimethylarginine dimethylaminohydrolase-1 (DDAH-1) (Homo sapiens) (protein)
chain: MAGLGHPAAFGRATHAVVRALPESLGQHALRSAKGEEVDVARAERQHQLYVGVLGSKLGLQVVELPADESLPDCVFVEDVAVVCEETALITRPGAPSRRKEVDMMKEALEKLQLNIVEMKDENATLDGGDVLFTGREFFVGLSKRTNQRGAEILADTFKDYAVSTVPVADGLHLKSFCSMAGPNLIAIGSSESAQKALKIMQQMSDHRYDKLTVPDDIAANCIYLNIPNKGHVLLHRTPEEYPESAKVYEKLKDHMLIPVSMSELEKVDGLLTCCSVLINKKVDS
For B1, the Km came out at 0.37 ± 0.03 µM.

In general, Km refers to the substrate concentration at which the rate is half of its maximum.
